This note sets out measurements from the supplement of paper PMC9112550, “Optimization of the antimicrobial peptide Bac7 by deep mutational scanning” (BMC Biology, 2022).
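Also: peptides expressed intracellularly from a pBAD plasmid library in pooled LB shake-flask culture, induced with 0.3% L-arabinose, DNA abundance read by NGS, three biological replicates, DESeq2 with apeglm shrinkage.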

The data set relates to Escherichia coli TOP10. The data set can be described thus: shrunken log2 fold change of peptide-encoding DNA abundance (4.5 h post-induction vs induction); higher = less antimicrobial activity (less host growth inhibition). The following applies: time post-induction: 4.5 h; library: site-saturation at positions 5, 18, 19, 20.
For the sequence RRIRVRPPRLPRPRPRPYISPRP, the “shrunken log2 fold change” value was -0.0821.

For the sequence RRIRKRPPRLPRPRPRPMCRPRP, the “shrunken log2 fold change” value came to 0.625.

Turning to RRIRHRPPRLPRPRPRPKHIPRP, the “shrunken log2 fold change” value was -0.413.

For RRIRIRPPRLPRPRPRPISMPRP, the “shrunken log2 fold change” value is 0.0215.

In the case of RRIRRRPPRLPRPRPRPCGMPRP, the “shrunken log2 fold change” value stood at 0.114.

Turning to RRIRPRPPRLPRPRPRPKVHPRP, the “shrunken log2 fold change” value is -0.132.

In the case of RRIRLRPPRLPRPRPRPKIAPRP, the “shrunken log2 fold change” value was -0.203.

On to RRIRLRPPRLPRPRPRPPNPPRP, for which the “shrunken log2 fold change” value was 0.423.

In the case of RRIRIRPPRLPRPRPRPPACPRP, the “shrunken log2 fold change” value came out at 0.498.

Consider RRIRRRPPRLPRPRPRPTMKPRP, for which the “shrunken log2 fold change” value is 0.286.

As to RRIRNRPPRLPRPRPRPPYEPRP, the “shrunken log2 fold change” value is -0.18.

Regarding RRIRLRPPRLPRPRPRPWMMPRP, the “shrunken log2 fold change” value is 0.00744.

For RRIRTRPPRLPRPRPRPHLSPRP, the “shrunken log2 fold change” value was -0.0793.

As to RRIRQRPPRLPRPRPRPSTHPRP, the “shrunken log2 fold change” value was -0.465.

RRIRGRPPRLPRPRPRPPMMPRP: the “shrunken log2 fold change” value came out at 0.626.

As for RRIRIRPPRLPRPRPRPHQEPRP, the “shrunken log2 fold change” value is -0.01.

As to RRIRYRPPRLPRPRPRPVIWPRP, the “shrunken log2 fold change” value is -0.262.

Take RRIRCRPPRLPRPRPRPVDEPRP: the “shrunken log2 fold change” value was determined as 2.09.

Consider RRIRQRPPRLPRPRPRPCLAPRP, for which the “shrunken log2 fold change” value is 0.297.

Turning to RRIRPRPPRLPRPRPRPLFMPRP, the “shrunken log2 fold change” value was -0.38.

Regarding RRIRIRPPRLPRPRPRPMLLPRP, the “shrunken log2 fold change” value amounted to 0.0902.

With RRIRLRPPRLPRPRPRPIGAPRP, the “shrunken log2 fold change” value was -0.0568.

For RRIRIRPPRLPRPRPRPMQFPRP, the “shrunken log2 fold change” value was -0.343.

As for RRIRGRPPRLPRPRPRPGIKPRP, the “shrunken log2 fold change” value is 0.429.

For the sequence RRIRWRPPRLPRPRPRPPIQPRP, the “shrunken log2 fold change” value stood at 0.277.

Regarding RRIRLRPPRLPRPRPRPPQEPRP, the “shrunken log2 fold change” value was found to be 0.0145.

As to RRIRERPPRLPRPRPRPFALPRP, the “shrunken log2 fold change” value is -0.256.

For the sequence RRIRYRPPRLPRPRPRPCENPRP, the “shrunken log2 fold change” value was -0.215.

As to RRIRMRPPRLPRPRPRPHFWPRP, the “shrunken log2 fold change” value is 0.774.

Regarding RRIRRRPPRLPRPRPRPGYWPRP, the “shrunken log2 fold change” value came out at 0.535.

As for RRIRNRPPRLPRPRPRPELRPRP, the “shrunken log2 fold change” value worked out at 0.0572.

RRIRSRPPRLPRPRPRPGYWPRP: the “shrunken log2 fold change” value is -0.0968.

For RRIRTRPPRLPRPRPRPHGLPRP, the “shrunken log2 fold change” value was -0.034.

Take RRIRWRPPRLPRPRPRPHHAPRP: the “shrunken log2 fold change” value was -0.0735.

With RRIRQRPPRLPRPRPRPSHWPRP, the “shrunken log2 fold change” value was -0.153.

In the case of RRIRPRPPRLPRPRPRPRDIPRP, the “shrunken log2 fold change” value was -0.191.

RRIRLRPPRLPRPRPRPPKFPRP: the “shrunken log2 fold change” value is 0.028.

In the case of RRIRCRPPRLPRPRPRPCYYPRP, the “shrunken log2 fold change” value is -1.31.

RRIRDRPPRLPRPRPRPMLAPRP: the “shrunken log2 fold change” value worked out at 0.607.

Consider RRIRWRPPRLPRPRPRPSGQPRP, for which the “shrunken log2 fold change” value was -0.0599.

In the case of RRIRFRPPRLPRPRPRPANVPRP, the “shrunken log2 fold change” value was -0.246.

Consider RRIRERPPRLPRPRPRPTYLPRP, for which the “shrunken log2 fold change” value was -0.178.

Take RRIRIRPPRLPRPRPRPCRQPRP: the “shrunken log2 fold change” value stood at 0.112.

In the case of RRIRLRPPRLPRPRPRPSQWPRP, the “shrunken log2 fold change” value amounted to 0.0987.

Consider RRIRWRPPRLPRPRPRPRRCPRP, for which the “shrunken log2 fold change” value was determined as 0.224.

With RRIRDRPPRLPRPRPRPTKEPRP, the “shrunken log2 fold change” value is -0.0917.

For the sequence RRIRHRPPRLPRPRPRPAKVPRP, the “shrunken log2 fold change” value amounted to 0.00133.

Turning to RRIRHRPPRLPRPRPRPDSFPRP, the “shrunken log2 fold change” value is -0.477.

In the case of RRIRHRPPRLPRPRPRPMPYPRP, the “shrunken log2 fold change” value was -0.00164.

As to RRIRGRPPRLPRPRPRPPQIPRP, the “shrunken log2 fold change” value was 0.859.

Consider RRIRFRPPRLPRPRPRPKMMPRP, for which the “shrunken log2 fold change” value was -0.147.

Turning to RRIRRRPPRLPRPRPRPSSPPRP, the “shrunken log2 fold change” value turned out to be 0.00935.

As to RRIRDRPPRLPRPRPRPPCRPRP, the “shrunken log2 fold change” value was -0.0227.

Take RRIRMRPPRLPRPRPRPPAFPRP: the “shrunken log2 fold change” value was 0.82.

Take RRIRYRPPRLPRPRPRPHHYPRP: the “shrunken log2 fold change” value is -1.79.

For the sequence RRIRDRPPRLPRPRPRPETLPRP, the “shrunken log2 fold change” value worked out at 0.452.

Turning to RRIRLRPPRLPRPRPRPNLWPRP, the “shrunken log2 fold change” value is 0.321.

For the sequence RRIRFRPPRLPRPRPRPHSCPRP, the “shrunken log2 fold change” value was -0.249.

With RRIRRRPPRLPRPRPRPTMLPRP, the “shrunken log2 fold change” value turned out to be 0.0234.

Regarding RRIRNRPPRLPRPRPRPPNMPRP, the “shrunken log2 fold change” value is -0.101.

For RRIRLRPPRLPRPRPRPNEKPRP, the “shrunken log2 fold change” value is -0.00697.

Consider RRIRQRPPRLPRPRPRPAHYPRP, for which the “shrunken log2 fold change” value was -0.332.

In the case of RRIRGRPPRLPRPRPRPHQVPRP, the “shrunken log2 fold change” value worked out at 0.078.

Regarding RRIRIRPPRLPRPRPRPWNLPRP, the “shrunken log2 fold change” value came to 0.0133.

Take RRIRMRPPRLPRPRPRPMKEPRP: the “shrunken log2 fold change” value was -0.0707.

In the case of RRIRKRPPRLPRPRPRPWEKPRP, the “shrunken log2 fold change” value is -0.00969.

As for RRIRRRPPRLPRPRPRPDFIPRP, the “shrunken log2 fold change” value worked out at 0.0171.

As for RRIRPRPPRLPRPRPRPAVVPRP, the “shrunken log2 fold change” value was found to be 0.197.

Regarding RRIRQRPPRLPRPRPRPPKFPRP, the “shrunken log2 fold change” value was determined as 0.117.

With RRIRFRPPRLPRPRPRPLTEPRP, the “shrunken log2 fold change” value is -0.331.

In the case of RRIRFRPPRLPRPRPRPTCRPRP, the “shrunken log2 fold change” value was -0.0357.

On to RRIRMRPPRLPRPRPRPYSFPRP, for which the “shrunken log2 fold change” value was -0.266.

As to RRIRIRPPRLPRPRPRPNFFPRP, the “shrunken log2 fold change” value was 0.00639.

In the case of RRIRDRPPRLPRPRPRPCYVPRP, the “shrunken log2 fold change” value was -0.116.

In the case of RRIRARPPRLPRPRPRPCQRPRP, the “shrunken log2 fold change” value was 0.246.

Take RRIRIRPPRLPRPRPRPYWSPRP: the “shrunken log2 fold change” value was found to be 0.0464.

As for RRIRNRPPRLPRPRPRPDQLPRP, the “shrunken log2 fold change” value was 0.0418.

In the case of RRIRKRPPRLPRPRPRPQNQPRP, the “shrunken log2 fold change” value came out at 0.0634.

Consider RRIRIRPPRLPRPRPRPFQMPRP, for which the “shrunken log2 fold change” value is -0.271.

For the sequence RRIRHRPPRLPRPRPRPHWHPRP, the “shrunken log2 fold change” value was -0.25.

Consider RRIRARPPRLPRPRPRPGWLPRP, for which the “shrunken log2 fold change” value came out at 0.285.

RRIRQRPPRLPRPRPRPRPGPRP: the “shrunken log2 fold change” value came to 0.286.

Consider RRIRVRPPRLPRPRPRPMHVPRP, for which the “shrunken log2 fold change” value was 0.0592.

With RRIRVRPPRLPRPRPRPVSPPRP, the “shrunken log2 fold change” value was -0.146.

With RRIRGRPPRLPRPRPRPNIRPRP, the “shrunken log2 fold change” value was -0.135.

Regarding RRIRKRPPRLPRPRPRPADPPRP, the “shrunken log2 fold change” value was -0.0715.

As for RRIRRRPPRLPRPRPRPIHCPRP, the “shrunken log2 fold change” value was -0.0105.

RRIRPRPPRLPRPRPRPSSRPRP: the “shrunken log2 fold change” value is -0.863.

Regarding RRIRKRPPRLPRPRPRPKMGPRP, the “shrunken log2 fold change” value is 0.0837.

Take RRIRERPPRLPRPRPRPTDYPRP: the “shrunken log2 fold change” value was -0.349.

For RRIRSRPPRLPRPRPRPWGHPRP, the “shrunken log2 fold change” value amounted to 0.109.

For the sequence RRIRARPPRLPRPRPRPQGGPRP, the “shrunken log2 fold change” value was found to be 0.499.

In the case of RRIRYRPPRLPRPRPRPLDMPRP, the “shrunken log2 fold change” value is -0.151.

For the sequence RRIRLRPPRLPRPRPRPSEDPRP, the “shrunken log2 fold change” value is -0.256.

Regarding RRIRLRPPRLPRPRPRPGFHPRP, the “shrunken log2 fold change” value is 0.0368.

RRIRERPPRLPRPRPRPDEDPRP: the “shrunken log2 fold change” value was -0.209.

For RRIRSRPPRLPRPRPRPMELPRP, the “shrunken log2 fold change” value is -0.187.

As to RRIRCRPPRLPRPRPRPPPLPRP, the “shrunken log2 fold change” value turned out to be 1.15.

Turning to RRIRMRPPRLPRPRPRPNFMPRP, the “shrunken log2 fold change” value was -0.0364.

As to RRIRCRPPRLPRPRPRPVQTPRP, the “shrunken log2 fold change” value was -0.0555.

As for RRIRWRPPRLPRPRPRPGYVPRP, the “shrunken log2 fold change” value is -0.215.

On to RRIRKRPPRLPRPRPRPYAIPRP, for which the “shrunken log2 fold change” value is 0.0303.

For the sequence RRIRRRPPRLPRPRPRPAKIPRP, the “shrunken log2 fold change” value is 0.117.

For the sequence RRIRERPPRLPRPRPRPPENPRP, the “shrunken log2 fold change” value was 0.222.

Consider RRIRKRPPRLPRPRPRPHLCPRP, for which the “shrunken log2 fold change” value was 0.0127.

As for RRIRDRPPRLPRPRPRPDANPRP, the “shrunken log2 fold change” value was determined as 0.163.

As for RRIRWRPPRLPRPRPRPMDGPRP, the “shrunken log2 fold change” value is 0.309.

Take RRIRHRPPRLPRPRPRPAPSPRP: the “shrunken log2 fold change” value came to 0.709.

As for RRIRMRPPRLPRPRPRPYWDPRP, the “shrunken log2 fold change” value is -0.0427.

For RRIRCRPPRLPRPRPRPDYEPRP, the “shrunken log2 fold change” value was -0.373.

With RRIRGRPPRLPRPRPRPPIMPRP, the “shrunken log2 fold change” value was found to be 0.375.

As to RRIRLRPPRLPRPRPRPLPWPRP, the “shrunken log2 fold change” value came to 0.334.

For RRIRSRPPRLPRPRPRPPERPRP, the “shrunken log2 fold change” value came out at 0.0652.

Consider RRIRKRPPRLPRPRPRPMYSPRP, for which the “shrunken log2 fold change” value is -0.11.

As to RRIRNRPPRLPRPRPRPCCPPRP, the “shrunken log2 fold change” value was -0.0502.

Turning to RRIRDRPPRLPRPRPRPGEGPRP, the “shrunken log2 fold change” value stood at 1.41.

Take RRIRQRPPRLPRPRPRPSYVPRP: the “shrunken log2 fold change” value is -1.04.

As to RRIRFRPPRLPRPRPRPYWDPRP, the “shrunken log2 fold change” value was -2.48.

For RRIRSRPPRLPRPRPRPDNYPRP, the “shrunken log2 fold change” value was -0.303.

With RRIRIRPPRLPRPRPRPMHIPRP, the “shrunken log2 fold change” value is -0.417.

Consider RRIRQRPPRLPRPRPRPRYAPRP, for which the “shrunken log2 fold change” value was found to be 0.0355.

RRIRWRPPRLPRPRPRPRTCPRP: the “shrunken log2 fold change” value was -0.045.

On to RRIRERPPRLPRPRPRPVLKPRP, for which the “shrunken log2 fold change” value worked out at 0.0458.

Turning to RRIRWRPPRLPRPRPRPKIYPRP, the “shrunken log2 fold change” value is -0.0902.

On to RRIRRRPPRLPRPRPRPYEKPRP, for which the “shrunken log2 fold change” value worked out at 0.0137.
